± gives the standard deviation of the averaged measurements.
Experiment: total protein half-life in vivo (active degradation + dilution); higher = more stable protein
[1] = E. coli NCM3722 delta-clpP delta-lon delta-hslV, growth: N-lim chemostat, doubling time 6 h
[2] = E. coli NCM3722 delta-clpP, growth: N-lim chemostat, doubling time 6 h
[3] = E. coli NCM3722 delta-hslV, growth: N-lim chemostat, doubling time 6 h
[4] = E. coli NCM3722 delta-lon, growth: N-lim chemostat, doubling time 6 h
[5] = E. coli NCM3722 delta-smpB, growth: N-lim chemostat, doubling time 6 h
[6] = wild type E. coli NCM3722, growth: C-lim chemostat, doubling time 3 h
[7] = wild type E. coli NCM3722, growth: C-lim chemostat, doubling time 6 h
[8] = wild type E. coli NCM3722, growth: C-lim chemostat, doubling time 12 h
[9] = wild type E. coli NCM3722, growth: N-lim chemostat, doubling time 6 h
[10] = wild type E. coli NCM3722, growth: N-lim chemostat, doubling time 12 h
[11] = wild type E. coli NCM3722, growth: P-lim chemostat, doubling time 6 h
[12] = wild type E. coli NCM3722, growth: P-lim chemostat, doubling time 12 h

Sequence	total protein half-life in vivo [1] [h]	total protein half-life in vivo [2] [h]	total protein half-life in vivo [3] [h]	total protein half-life in vivo [4] [h]	total protein half-life in vivo [5] [h]	total protein half-life in vivo [6] [h]	total protein half-life in vivo [7] [h]	total protein half-life in vivo [8] [h]	total protein half-life in vivo [9] [h]	total protein half-life in vivo [10] [h]	total protein half-life in vivo [11] [h]	total protein half-life in vivo [12] [h]
MAYKHIGVAISGNEEDALLVNKALELARHNDAHLTLIHIDDGLSELYPGIYFPATEDILQLLKNKSDNKLYKLTKNIQWPKTKLRIERGEMPETLLEIMQKEQCDLLVCGHHHSFINRLMPAYRGMINKMSADLLIVPFIDK [P0AAB8]	4.18 ± 0.41	3.79 ± 0.29	3.73	4.56 ± 0.14	2.7 ± 0.18	2.99	5.49	9.51 ± 0.66	3.69	5.52 ± 0.12	4.66 ± 0.43	10.7 ± 0.12
MLVWLAEHLVKYYSGFNVFSYLTFRAIVSLLTALFISLWMGPRMIAHLQKLSFGQVVRNDGPESHFSKRGTPTMGGIMILTAIVISVLLWAYPSNPYVWCVLVVLVGYGVIGFVDDYRKVVRKDTKGLIARWKYFWMSVIALGVAFALYLAGKDTPATQLVVPFFKDVMPQLGLFYILLAYFVIVGTGNAVNLTDGLDGLAIMPTVFVAGGFALVAWATGNMNFASYLHIPYLRHAGELVIVCTAIVGAGLGFLWFNTYPAQVFMGDVGSLALGGALGIIAVLLRQEFLLVIMGGVFVVETLSVILQVGSFKLRGQRIFRMAPIHHHYELKGWPEPRVIVRFWIISLMLVLIGLATLKVR [P0A6W3]	6.14	5.83	5.23	5.13 ± 0.073	7.03	–	–	12.3 ± 0.13	6.35 ± 0.4	13.1	6.06	11.1 ± 0.92
MVKLAFPRELRLLTPSQFTFVFQQPQRAGTPQITILGRLNSLGHPRIGLTVAKKNVRRAHERNRIKRLTRESFRLRQHELPAMDFVVVAKKGVADLDNRALSEALEKLWRRHCRLARGS [P0A7Y8]	–	5.44	4.21	6.46 ± 0.22	3.76 ± 0.17	3.11 ± 0.27	4.82 ± 0.15	8.06	3.63 ± 0.43	7.32 ± 2.1	3.7	7.12 ± 0.64
MERNVTLDFVRGVAILGILLLNISAFGLPKAAYLNPAWYGAITPRDAWTWAFLDLIGQVKFLTLFALLFGAGLQMLLPRGRRWIQSRLTLLVLLGFIHGLLFWDGDILLAYGLVGLICWRLVRDAPSVKSLFNTGVMLYLVGLGVLLLLGLISDSQTSRAWTPDASAILYEKYWKLHGGVEAISNRADGVGNSLLALGAQYGWQLAGMMLIGAALMRSGWLKGQFSLRHYRRTGFVLVAIGVTINLPAIALQWQLDWAYRWCAFLLQMPRELSAPFQAIGYASLFYGFWPQLSRFKLVLAIACVGRMALTNYLLQTLICTTLFYHLGLFMHFDRLELLAFVIPVWLANILFSVIWLRYFRQGPVEWLWRQLTLRAAGPAISKTSR	–	5.73 ± 0.069	5.75 ± 1.1	6.13 ± 0.32	5.67 ± 0.66	–	6.471 ± 0.017	10.3 ± 1.2	6.72 ± 0.74	7.45 ± 4	5.19 ± 0.44	11.6 ± 0.22
MDNDKIDQHSDEIEVESEEKERGKKIEIDEDRLPSRAMAIHEHIRQDGEKELERDAMALLWSAIAAGLSMGASLLAKGIFQVELEGVPGSFLLENLGYTFGFIIVIMARQQLFTENTVTAVLPVMQKPTMSNVGLLIRLWGVVLLGNILGTGIAAWAFEYMPIFNEETRDAFVKIGMDVMKNTPSEMFANAIISGWLIATMVWMFPAAGAAKIVVIILMTWLIALGDTTHIVVGSVEILYLVFNGTLHWSDFIWPFALPTLAGNICGGTFIFALMSHAQIRNDMSNKRKAEARQKAERAENIKKNYKNPA	6.19 ± 0.79	5.38 ± 0.26	5.3	5.46	6.11 ± 1.4	3.47	5.51 ± 0.23	11.5 ± 1.9	5.75 ± 1.1	13.5 ± 1.3	6.29 ± 0.45	12.6 ± 0.066
MMNTEGNNGNKPLGLWNVVSIGIGAMVGAGIFALLGQAALLMEASTWVAFAFGGIVAMFSGYAYARLGASYPSNGGIIDFFRRGLGNGVFSLALSLLYLLTLAVSIAMVARAFGAYAVQFLHEGSQEEHLILLYALGIIAVMTLFNSLSNHAVGRLEVILVGIKMMILLLLIIAGVWSLQPAHISVSAPPSSGAFFSCIGITFLAYAGFGMMANAADKVKDPQVIMPRAFLVAIGVTTLLYISLALVLLSDVSALELEKYADTAVAQAASPLLGHVGYVIVVIGALLATASAINANLFAVFNIMDNMGSERELPKLMNKSLWRQSTWGNIIVVVLIMLMTAALNLGSLASVASATFLICYLAVFVVAIRLRHDIHASLPILIVGTLVMLLVIVGFIYSLWSQGSRALIWIIGSLLLSLIVAMVMKRNKTV	–	6.11	–	–	–	–	–	–	–	–	–	–
MSLPMLQVALDNQTMDSAYETTRLIAEEVDIIEVGTILCVGEGVRAVRDLKALYPHKIVLADAKIADAGKILSRMCFEANADWVTVICCADINTAKGALDVAKEFNGDVQIELTGYWTWEQAQQWRDAGIGQVVYHRSRDAQAAGVAWGEADITAIKRLSDMGFKVTVTGGLALEDLPLFKGIPIHVFIAGRSIRDAASPVEAARQFKRSIAELWG	5.41	2.49	2.68	–	4.15 ± 2.2	2.29 ± 0.076	5.11 ± 1.5	5.84 ± 1.4	–	–	2.69	3.39
MKYKHLILSLSLIMLGPLAHAEEIGSVDTVFKMIGPDHKIVVEAFDDPDVKNVTCYVSRAKTGGIKGGLGLAEDTSDAAISCQQVGPIELSDRIKNGKAQGEVVFKKRTSLVFKSLQVVRFYDAKRNALAYLAYSDKVVEGSPKNAISAVPVMPWRQ [P0AE91]	5.76 ± 0.34	–	6.57 ± 0.31	–	6.01 ± 0.23	2.92 ± 0.29	5.9682 ± 0.0034	12.1 ± 2.7	6.39 ± 1.3	13.3 ± 0.76	6.41 ± 0.56	–
MALAMKVISQVEAQRKILEEAVSTALELASGKSDGAEVAVSKTTGISVSTRYGEVENVEFNSDGALGITVYHQNRKGSASSTDLSPQAIARTVQAALDIARYTSPDPCAGVADKELLAFDAPDLDLFHPAEVSPDEAIELAARAEQAALQADKRITNTEGGSFNSHYGVKVFGNSHGMLQGYCSTRHSLSSCVIAEENGDMERDYAYTIGRAMSDLQTPEWVGADCARRTLSRLSPRKLSTMKAPVIFANEVATGLFGHLVGAIAGGSVYRKSTFLLDSLGKQILPDWLTIEEHPHLLKGLASTPFDSEGVRTERRDIIKDGILTQWLLTSYSARKLGLKSTGHAGGIHNWRIAGQGLSFEQMLKEMGTGLVVTELMGQGVSAITGDYSRGAAGFWVENGEIQYPVSEITIAGNLKDMWRNIVTVGNDIETRSNIQCGSVLLPEMKIAGQ [P0AFK0]	4.58 ± 0.36	4.28 ± 0.05	4.07 ± 0.065	4.34 ± 0.1	4.12 ± 0.032	3.39 ± 0.57	5.59 ± 0.52	9.13 ± 0.67	4.27 ± 0.28	6.45 ± 0.34	5.5 ± 0.28	10.09 ± 0.033
MHADTATRQHWMSVLAHSQPAELAARLNALNITADYEVIRAAETGLVQIQARMGGTGERFFAGDATLTRAAVRLTDGTLGYSWVQGRDKQHAERCALIDALMQQSRHFQNLSETLIAPLDADRMARIAARQAEVNASRVDFFTMVRGDNA	–	–	–	–	–	–	–	–	–	–	1.11 ± 1.1	1.64 ± 0.035
MKFKVIALAALMGISGMAAQANELPDGPHIVTSGTASVDAVPDIATLAIEVNVAAKDAATAKKQADERVAQYISFLELNQIAKKDISSANLRTQPDYDYQDGKSILKGYRAVRTVEVTLRQLDKLNSLLDGALKAGLNEIRSVSLGVAQPDAYKDKARKAAIDNAIHQAQELANGFHRKLGPVYSVRYHVSNYQPSPMVRMMKADAAPVSAQETYEQAAIQFDDQVDVVFQLEPVDQQPAKTPAAQ [P0ADS6]	6.45 ± 0.46	6.67 ± 0.7	–	6.77 ± 1.2	5.98 ± 0.096	3.2 ± 0.14	5.88 ± 0.43	12.1 ± 1.4	5.83 ± 0.65	12.1 ± 1.2	5.59 ± 0.14	11.7 ± 0.76
MSKISDLNYSQHITLADNFKQKSEVLNTWRVGMNDFARIAGGQDNRRNILSPGAFLEFLAKIFTLGYVDFSKRSNEAGRNMMAHIKSSSYSKDTNGNEKMKFYMNNPVGERADSPKVIIEISLSTITTMGTRQGHTAIIFPQPDGSTNRYEGKSFERKDESSLHLITNKVLACYQSEANKKIARLLNNNQELNNLQKLNNLQKLNNLLKLNNIQGLNNPQELNNPQNLNDSQELNNSQELNSPQELNDPQELNNSQDLNNSKVSCTVSVDSTITGLLKEPLNNALLAIRNEHLLLMPHVCDESISYLLGEKGILEEIDKLYALNDHGIDNDKVGNNEINDIKVNLSHILIDSLDDAKVNLTPVIDSILETFSKSPYINDVRILDWCFNKSMQYFDDTKKIKHACSVINHINLRSDQSKIAETLFFNLDKEPYKNSPELQGLIWNKLVVYVNEFNLSNREKTNLIQRLFDNVESIFNEVPVSILVNDIFMNDFFMKNPEMINWYFPQLLKSYEGEKIYFDNLKYDLNDNDKESNKEILKNQPDNVIKEKLNNEYKLRFRMMQTILQSRVNVLPYINEQRLNKLNPPENLRIAIEHFGWKNRPITA	5.05	4.13 ± 0.42	4.07	3.78	–	1.27	3.95 ± 2.7	8.85	–	–	2.71	2.84 ± 1.1
MYVAVKGGEKAIDAAHALQESRRRGDTDLPELSVAQIEQQLNLAVDRVMTEGGIADRELAALALKQASGDNVEAIFLLRAYRTTLAKLAVSEPLDTTGMRLERRISAVYKDIPGGQLLGPTYDYTHRLLDFTLLANGEAPTLTTADSEQQPSPHVFSLLARQGLAKFEEDSGAQPDDITRTPPVYPCSRSSRLQQLMRGDEGYLLALAYSTQRGYGRNHPFAGEIRSGYIDVSIVPEELGFAVNVGELLMTECEMVNGFIDPPGEPPHFTRGYGLVFGMSERKAMAMALVDRALQAPEYGEHATGPAQDEEFVLAHADNVEAAGFVSHLKLPHYVDFQAELELLKRLQQEQNHG	–	–	–	–	–	–	–	–	–	–	0.609 ± 0.46	1.36 ± 0.41
MNAEKSPVNHNVDHEEIAKFEAVASRWWDLEGEFKPLHRINPLRLGYIAERAGGLFGKKVLDVGCGGGILAESMAREGATVTGLDMGFEPLQVAKLHALESGIQVDYVQETVEEHAAKHAGQYDVVTCMEMLEHVPDPQSVVRACAQLVKPGGDVFFSTLNRNGKSWLMAVVGAEYILRMVPKGTHDVKKFIKPAELLGWVDQTSLKERHITGLHYNPITNTFKLGPGVDVNYMLHTQNK	4.74 ± 0.1	4.09 ± 0.23	3.48 ± 0.11	4.02 ± 0.45	3.46 ± 0.082	2.45 ± 0.027	4.96 ± 0.83	6.694 ± 0.058	3.85 ± 0.49	5.66 ± 0.72	3.13 ± 0.38	5.66 ± 0.45
MAKAPKRAFVCNECGADYPRWQGQCSACHAWNTITEVRLAASPMVARNERLSGYAGSAGVAKVQKLSDISLEELPRFSTGFKEFDRVLGGGVVPGSAILIGGNPGAGKSTLLLQTLCKLAQQMKTLYVTGEESLQQVAMRAHRLGLPTDNLNMLSETSIEQICLIAEEEQPKLMVIDSIQVMHMADVQSSPGSVAQVRETAAYLTRFAKTRGVAIVMVGHVTKDGSLAGPKVLEHCIDCSVLLDGDADSRFRTLRSHKNRFGAVNELGVFAMTEQGLREVSNPSAIFLSRGDEVTSGSSVMVVWEGTRPLLVEIQALVDHSMMANPRRVAVGLEQNRLAILLAVLHRHGGLQMADQDVFVNVVGGVKVTETSADLALLLAMVSSLRDRPLPQDLVVFGEVGLAGEIRPVPSGQERISEAAKHGFRRAIVPAANVPKKAPEGMQIFGVKKLSDALSVFDDL	4.95 ± 0.18	4.7 ± 0.74	4.63 ± 1.1	–	3.88 ± 0.27	2.88 ± 0.043	4.894 ± 0.039	8.52 ± 1.8	3.65 ± 0.14	5.76 ± 0.49	5.64 ± 0.66	10.2 ± 0.85

Source: the supplement of paper PMC11246515
